Experiment [1] concerns the target T1, human claudin-4, untagged (human, UniProt O14493).
T1 construct: also called hCLDN-4
Kind of experiment: SEC. Particulars: both partners purified.

Experiment [2] has as its target T2, cCpE-His10 (wild type) (Clostridium perfringens, UniProt P01558).
T2 construct: not shown: His10, C-terminal, kept
Kind of experiment: BLI. Particulars: both partners purified.

For orientation: Kd means the concentration at which binding is half-saturated. High values mean weaker binding, low ones tighter binding. In general, koff refers to the rate constant with which the complex falls apart. Low values mean a long-lived complex, high ones a short-lived complex. The kon is a measure of how fast the partners come together.

T1 sequence (O14493 whole entry): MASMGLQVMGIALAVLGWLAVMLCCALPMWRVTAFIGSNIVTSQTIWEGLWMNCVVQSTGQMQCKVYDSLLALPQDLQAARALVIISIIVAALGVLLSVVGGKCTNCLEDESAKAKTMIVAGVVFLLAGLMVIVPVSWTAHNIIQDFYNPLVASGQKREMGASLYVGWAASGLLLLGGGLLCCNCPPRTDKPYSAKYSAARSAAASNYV

B1: COP-3 (CpE Obstructing Protein 3), synthetic antigen-binding fragment (Fab, V domains shown)
VH: EVQLVESGGGLVQPGGSLRLSCAASGFNFYSSSIHWVRQAPGKGLEWVAYISSYSGYTYYADSVKGRFTISADTSKNTAYLQMNSLRAEDTAVYYCARGYGYFDYNFSVGYALDYWGQGTLVTVSS
VL: DIQMTQSPSSLSASVGDRVTITCRASQSVSSAVAWYQQKPGKAPKLLIYSASSLYSGVPSRFSGSRSGTDFTLTISSLQPEDFATYYCQQSHPWYYPITFGQGTKVEIK
notes: also called sFab; source: E. coli BL21-Gold, purified (MabSelect SuRe, Resource S)
For B1, in experiment [1], the binding result is “no binding”. In addition, in experiment [2], the equilibrium dissociation constant (Kd) is 138 ± 6.2 nM, the koff was 0.001 s⁻¹ and the kon is 10000 M⁻¹ s⁻¹.

B2: COP-2 (CpE Obstructing Protein 2), synthetic antigen-binding fragment (Fab, V domains shown)
VH: EVQLVESGGGLVQPGGSLRLSCAASGFNFSSSSIHWVRQAPGKGLEWVASISSYSGYTSYADSVKGRFTISADTSKNTAYLQMNSLRAEDTAVYYCARYWSWYNSSHYIYSALDYWGQGTLVTVSS
VL: DIQMTQSPSSLSASVGDRVTITCRASQSVSSAVAWYQQKPGKAPKLLIYSASSLYSGVPSRFSGSRSGTDFTLTISSLQPEDFATYYCQQSYEWAPVTFGQGTKVEIK
notes: as for B1
In the case of B2, the binding result in experiment [1] was “no binding”. In experiment [2], this molecule had a dissociation constant Kd of 67.6 ± 11.7 nM, a koff of 0.00048 s⁻¹ and a kon of 7200 M⁻¹ s⁻¹.

Source of the values: PMC9463536 (The Journal of Biological Chemistry, 2022).
